Molecular target: PhTX-II PLA2 (Porthidium hyoprora)

crotapotin F3 from Crotalus durissus collilineatus (natural protein)
inhibition of the PLA2 enzymatic activity of PhTX-II (substrate 4-nitro-3-(octanoyloxy) benzoic acid) after incubating the two proteins 1:1 w/w for 30 min at 37 °C: 60%

crotapotin F2 from Crotalus durissus collilineatus (natural protein)
inhibition of the PLA2 enzymatic activity of PhTX-II (substrate 4-nitro-3-(octanoyloxy) benzoic acid) after incubating the two proteins 1:1 w/w for 30 min at 37 °C: 60%

Reference: PMC4247251
